Patent US20260250421A1 (BIOCYTOGEN PHARMACEUTICALS BEIJING, published 2026)
Substitutions are numbered along the chain they refer to.

T1: dog PTK7 on dog cancer cell lines (dog, UniProt A0A8I3N574 31-1070)
T1 construct: whole, on cells; Endogenous protein on dog tumour cell lines; also called PTK7 on CMT-U27 and D-17 cells; dog cancer cells
T1 sequence: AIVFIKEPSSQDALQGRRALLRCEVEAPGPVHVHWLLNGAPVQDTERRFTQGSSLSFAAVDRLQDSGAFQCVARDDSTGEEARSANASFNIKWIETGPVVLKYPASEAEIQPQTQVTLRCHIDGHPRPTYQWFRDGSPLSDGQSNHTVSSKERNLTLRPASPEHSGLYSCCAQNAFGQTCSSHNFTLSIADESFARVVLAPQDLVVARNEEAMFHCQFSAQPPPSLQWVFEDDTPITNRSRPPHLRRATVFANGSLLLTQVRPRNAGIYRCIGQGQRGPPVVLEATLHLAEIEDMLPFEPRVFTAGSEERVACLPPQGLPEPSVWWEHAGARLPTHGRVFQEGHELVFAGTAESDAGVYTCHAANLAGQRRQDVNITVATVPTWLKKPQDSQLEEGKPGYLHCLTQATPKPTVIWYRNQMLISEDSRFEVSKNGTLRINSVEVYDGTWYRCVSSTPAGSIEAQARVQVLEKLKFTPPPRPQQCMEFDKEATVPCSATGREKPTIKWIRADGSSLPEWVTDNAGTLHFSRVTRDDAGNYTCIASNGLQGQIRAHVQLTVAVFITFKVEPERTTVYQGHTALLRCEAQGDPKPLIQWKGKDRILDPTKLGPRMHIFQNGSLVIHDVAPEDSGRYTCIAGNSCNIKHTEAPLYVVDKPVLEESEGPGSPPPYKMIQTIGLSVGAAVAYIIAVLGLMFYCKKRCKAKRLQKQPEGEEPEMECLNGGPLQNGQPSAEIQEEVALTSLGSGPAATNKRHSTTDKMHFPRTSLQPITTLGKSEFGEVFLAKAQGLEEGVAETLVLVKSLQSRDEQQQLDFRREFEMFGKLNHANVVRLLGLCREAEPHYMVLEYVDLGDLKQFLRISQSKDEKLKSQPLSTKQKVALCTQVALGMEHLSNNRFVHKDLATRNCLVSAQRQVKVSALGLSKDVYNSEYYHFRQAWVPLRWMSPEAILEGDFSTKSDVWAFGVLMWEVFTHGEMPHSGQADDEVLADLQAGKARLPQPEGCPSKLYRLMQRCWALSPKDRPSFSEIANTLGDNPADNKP

T2: His-tagged dog PTK7 protein (dog, UniProt Q13308 31-703 (human entry))
T2 construct: also called dPTK7-His
T2 chain: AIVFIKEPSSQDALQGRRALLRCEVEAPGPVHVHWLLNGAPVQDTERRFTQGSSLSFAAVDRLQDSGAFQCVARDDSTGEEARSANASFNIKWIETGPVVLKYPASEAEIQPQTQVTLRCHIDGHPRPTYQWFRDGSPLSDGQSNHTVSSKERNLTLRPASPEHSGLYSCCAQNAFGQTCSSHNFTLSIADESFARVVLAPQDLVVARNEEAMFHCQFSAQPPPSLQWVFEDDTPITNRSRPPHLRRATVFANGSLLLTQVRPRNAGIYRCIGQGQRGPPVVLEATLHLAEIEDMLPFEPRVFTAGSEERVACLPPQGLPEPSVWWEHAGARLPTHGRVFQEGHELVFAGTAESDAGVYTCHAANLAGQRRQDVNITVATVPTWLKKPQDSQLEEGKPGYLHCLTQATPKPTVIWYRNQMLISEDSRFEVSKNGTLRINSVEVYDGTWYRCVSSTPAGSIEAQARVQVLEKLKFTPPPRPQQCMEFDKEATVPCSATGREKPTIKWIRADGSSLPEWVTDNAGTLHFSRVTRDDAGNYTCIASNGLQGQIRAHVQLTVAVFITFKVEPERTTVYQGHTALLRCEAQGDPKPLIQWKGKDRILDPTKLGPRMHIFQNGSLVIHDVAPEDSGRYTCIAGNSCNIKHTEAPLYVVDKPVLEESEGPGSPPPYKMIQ

T3: TROP2 on NCI-H1975 and NUGC-4 tumor cells (UniProt P09758 27-323, limits assumed)
T3 construct: whole, on cells; species of the lines is not worded there; also called TROP2 on cells
T3 sequence (looked up): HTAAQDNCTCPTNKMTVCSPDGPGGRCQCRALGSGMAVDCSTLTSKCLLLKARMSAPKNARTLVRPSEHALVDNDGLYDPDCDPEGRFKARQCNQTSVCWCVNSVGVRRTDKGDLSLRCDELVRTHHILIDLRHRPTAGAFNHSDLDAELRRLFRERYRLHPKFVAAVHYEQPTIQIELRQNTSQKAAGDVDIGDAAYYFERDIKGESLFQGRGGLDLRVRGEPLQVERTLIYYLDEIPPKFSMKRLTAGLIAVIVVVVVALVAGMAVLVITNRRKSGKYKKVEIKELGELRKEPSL

T4: His-tagged monkey TROP2 protein (cynomolgus monkey; Rhesus …, UniProt A0A5F8AGB8 27-274)
T4 construct: also called cTROP2-His; ACRO Biosystems Cat# TR2-R52H3
T4 sequence: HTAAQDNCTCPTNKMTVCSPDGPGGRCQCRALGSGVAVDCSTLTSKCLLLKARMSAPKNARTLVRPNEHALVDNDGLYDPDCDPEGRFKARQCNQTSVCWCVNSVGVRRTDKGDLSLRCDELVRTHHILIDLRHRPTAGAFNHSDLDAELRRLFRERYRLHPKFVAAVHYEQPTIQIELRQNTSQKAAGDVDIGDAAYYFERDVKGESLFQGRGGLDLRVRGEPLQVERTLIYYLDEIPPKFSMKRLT

T5: His-tagged human TROP2 protein (human, UniProt P09758 27-274)
T5 construct: Bought protein; also called hTROP2-His; ACRO Biosystems Cat# TR2-H5223; not shown: His tag
T5 sequence (looked up): T4 sequence with V36M, N67S, V204I

B1: hu24 analog (antibody, IgG1, V domains shown)
VH: QVQLVQSGPEVKKPGASVKVSCKASGYTFTDYAVHWVRQAPGKRLEWIGVISTYNDYTYNNQDFKGRVTMTRDTSASTAYMELSRLRSEDTAVYYCARGNSYFYALDYWGQGTSVTVSS
VL: EIVLTQSPATLSLSPGERATLSCRASESVDSYGKSFMHWYQQKPGQAPRLLIYRASNLESGIPARFSGSGSGTDFTLTISSLEPEDFAVYYCQQSNEDPWTFGGGTKLEIK
notes: Humanized IgG1 monoclonal antibody targeting PTK7; also called positive control
B2: 18F12 (antibody, V domains shown)
VH: QLQLKESGPGLVKPSETLSLTCTVSGGSISYYYWSWIRQPPGMGLEWIGNIYYSGDTNYNPSLRSRVTISIDMSKNQFSLRLNSVTAADTAVYYCARYDMFKWNYEAFDVWGQGTMVTVSS
VL: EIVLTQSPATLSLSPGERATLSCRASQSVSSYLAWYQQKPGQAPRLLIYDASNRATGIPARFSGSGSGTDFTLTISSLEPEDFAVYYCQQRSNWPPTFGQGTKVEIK
notes: also called anti-TROP2 antibody 18F12
B3: Sacituzumab analog (antibody, V domains shown)
VH: QVQLQQSGSELKKPGASVKVSCKASGYTFTNYGMNWVKQAPGQGLKWMGWINTYTGEPTYTDDFKGRFAFSLDTSVSTAYLQISSLKADDTAVYFCARGGFGSSYWYFDVWGQGSLVTVSS
VL: DIQLTQSPSSLSASVGDRVSITCKASQDVSIAVAWYQQKPGKAPKLLIYSASYRYTGVPDRFSGSGSGTDFTLTISSLQPEDFAVYYCQQHYITPLTFGAGTKVEIKR
notes: also called antibody portion of Sacituzumab govitecan
B4: DS-1062 analog-LALA (antibody, V domains shown)
VH: QVQLVQSGAEVKKPGASVKVSCKASGYTFTTAGMQWVRQAPGQGLEWMGWINTHSGVPKYAEDFKGRVTISADTSTSTAYLQLSSLKSEDTAVYYCARSGFGSSYWYFDVWGQGTLVTVSS
VL: B3 VL with L4M, S20T, I31T, D60S, A100Q, V104L
notes: also called DS-1062 analog with LALA mutations
B5: 18E9 (antibody, V domains shown)
VH: QLQLQQSGPGLLKPSETLSLTCTVSGGSISSSYYFWGWIRQPPGKGLEWIGAIYYIGNTHYNPSLKSRVTISIDTSKNQFSLNLNSVTAADTAIYYCARYEDTWNWFDPWGQGTLVTVSS
VL: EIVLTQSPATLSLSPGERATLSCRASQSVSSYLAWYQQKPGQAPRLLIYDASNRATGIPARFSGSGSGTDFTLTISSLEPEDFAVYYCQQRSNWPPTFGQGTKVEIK
notes: also called anti-TROP2 antibody 18E9
B6: DS-1062 analog (antibody, V domains shown)
VH: B4 VH
VL: DIQMTQSPSSLSASVGDRVTITCKASQDVSTAVAWYQQKPGKAPKLLIYSASYRYTGVPSRFSGSGSGTDFTLTISSLQPEDFAVYYCQQHYITPLTFGQGTKLEIK
notes: The sheet names it 'DS-1062 analog' with no LALA or SI suffix, so it is kept apart from m18 (DS-1062 analog-LALA); also called antibody portion of DS-1062; copies: 2 + 2

What was measured:
[1] = biological target: T1, dog PTK7 on dog cancer cell lines; assay: flow cytometry on CMT-U27 and D-17 cells
Description: (§1) The binding activity of anti-PTK7 antibodies to cancer cell lines was verified by flow cytometry. […] Purified anti-PTK7 antibody with a concentration of 5 μg/mL was added to each well and was incubated at 4° C. for 30 minutes. […] The cells were collected, and the mean fluorescence intensity (MFI) was determined. Human IgG1 was used as ISO control.

[2] = biological target: T2, His-tagged dog PTK7 protein; assay: SPR Biacore 8K, Ab on Protein A chip
Description: (§2) Purified anti-PTK7 antibodies were diluted to 1 μg/mL and then injected into the Biacore™ 8K biosensor at 10 μL/min for about 50 seconds to achieve a desired protein density (e.g., about 50 response units (RU)). The His-tagged PTK7 protein at a concentration of 200 nM or 0 nM was then injected at 30 μL/min for 180 seconds. Dissociation was monitored for 400 seconds. The chip was regenerated after the last injection of each titration with glycine (pH 2.0, 30 μL/min for 30 seconds).

[3] = biological target: T3, TROP2 on NCI-H1975 and NUGC-4 tumor …; assay: flow cytometry on NUGC-4 cells (only TROP2 expression), anti-hIgG-Fc Alexa Fluor 647 secondary antibody, MFI [B]
Description: (§3) This experiment was performed to test the binding activities of the anti-PTK7/TROP2 bispecific antibodies to different tumor cell lines. NCI-H1975 cells or NUGC-4 cells were transferred to a 96-well plate at a density of 5×10⁴ cells/well respectively. The sample antibody was added to the 96-well plate, and incubated at 4° C. for 30 min.

[4] = biological target: T1, dog PTK7 on dog cancer cell lines; assay: flow cytometry, D-17 dog cells, Ab 5 ug/mL
Description: as §1

[5] = biological target: T1, dog PTK7 on dog cancer cell lines; assay: flow cytometry, CMT-U27 dog cells, Ab 5 ug/mL
Description: as §1

[6] = biological target: T4, His-tagged monkey TROP2 protein; assay: SPR Biacore 8K, Ab on Protein A chip
Description: (§4) The affinity of the anti-TROP2 antibodies to His-tagged human TROP2 protein (hTROP2-His, ACRO Biosystems Inc., Cat #: TR2-H5223), His-tagged cynomolgus monkey TROP2 protein (cTROP2-His, ACRO Biosystems Inc., Cat #: TR2-R52H3) and His-tagged dog TROP2 protein (dTROP2-His, ACRO Biosystems Inc., Cat #: TR2-C52H4) were measured by surface plasmon resonance (SPR) using Biacore™ (Biacore, INC, Piscataway N.J.) 8K biosensor equipped with pre-immobilized Protein A sensor chips.
as §2, with “Purified anti-TROP2 antibodies were” for “Purified anti-PTK7 antibodies were”, “(e.g., about 350 response units” for “(e.g., about 50 response units”, “The His-tagged TROP2 protein at” for “The His-tagged PTK7 protein at”, “of 200 nM was” for “of 200 nM or 0 nM was”

[7] = biological target: T5, His-tagged human TROP2 protein; assay: SPR Biacore 8K, Ab on Protein A chip
Description: as §4
as §2, with “Purified anti-TROP2 antibodies were” for “Purified anti-PTK7 antibodies were”, “(e.g., about 350 response units” for “(e.g., about 50 response units”, “The His-tagged TROP2 protein at” for “The His-tagged PTK7 protein at”, “of 200 nM was” for “of 200 nM or 0 nM was”

[8] = biological target: T3, TROP2 on NCI-H1975 and NUGC-4 tumor …; assay: flow cytometry on NCI-H1975 cells (PTK7/TROP2 co-expression), anti-hIgG-Fc Alexa Fluor 647 secondary antibody, MFI [A]
Description: as §3

| Binder | binding result [1] | binding result [2] | binding result [3] | MFI [4] | MFI [5] | Kd [6] [nM] | koff [6] [s⁻¹] | kon [6] [M⁻¹ s⁻¹] | Kd [7] [nM] | koff [7] [s⁻¹] | kon [7] [M⁻¹ s⁻¹] | EC50 (read off the curve) [3] [µg/mL] | EC50 (read off the curve) [8] [µg/mL] |
| --- | --- | --- | --- | --- | --- | --- | --- | --- | --- | --- | --- | --- | --- |
| B1 | no binding (tested: 5 ug/mL) | no binding (tested: 200 nM) | no binding (tested: about 20 µg/mL) | 3690 | 1940 |  |  |  |  |  |  |  |  |
| B2 |  |  |  |  |  | 5.41 | 0.00435 | 803000 | 7.16 | 0.00511 | 713000 |  |  |
| B3 |  |  |  |  |  | 1.11 | 0.000245 | 221000 | 1.24 | 0.000255 | 205000 | ~0.6 | ~0.7 |
| B4 |  |  |  |  |  | 32.5 | 0.00409 | 126000 | 37 | 0.00411 | 111000 |  |  |
| B5 |  |  |  |  |  | 1.2 | 0.00132 | 1.1e+06 | 1.46 | 0.00117 | 798000 |  |  |
| B6 |  |  |  |  |  |  |  |  |  |  |  | ~0.3 | ~0.4 |
